Laboratory results: article PMC7659714 (The Journal of Cell Biology, 2020)
One block for each binder: values may come before it.

What was measured:
[1] = biological target: T1, GluA1 expressed in HEK cells (mTurquoise2-GluA1) (mouse, UniProt P23818 19-907); assay: co-IP
[2] = biological target: T1, GluA1 expressed in HEK cells …; assay: FRET or BRET

T1 sequence (P23818 19-907): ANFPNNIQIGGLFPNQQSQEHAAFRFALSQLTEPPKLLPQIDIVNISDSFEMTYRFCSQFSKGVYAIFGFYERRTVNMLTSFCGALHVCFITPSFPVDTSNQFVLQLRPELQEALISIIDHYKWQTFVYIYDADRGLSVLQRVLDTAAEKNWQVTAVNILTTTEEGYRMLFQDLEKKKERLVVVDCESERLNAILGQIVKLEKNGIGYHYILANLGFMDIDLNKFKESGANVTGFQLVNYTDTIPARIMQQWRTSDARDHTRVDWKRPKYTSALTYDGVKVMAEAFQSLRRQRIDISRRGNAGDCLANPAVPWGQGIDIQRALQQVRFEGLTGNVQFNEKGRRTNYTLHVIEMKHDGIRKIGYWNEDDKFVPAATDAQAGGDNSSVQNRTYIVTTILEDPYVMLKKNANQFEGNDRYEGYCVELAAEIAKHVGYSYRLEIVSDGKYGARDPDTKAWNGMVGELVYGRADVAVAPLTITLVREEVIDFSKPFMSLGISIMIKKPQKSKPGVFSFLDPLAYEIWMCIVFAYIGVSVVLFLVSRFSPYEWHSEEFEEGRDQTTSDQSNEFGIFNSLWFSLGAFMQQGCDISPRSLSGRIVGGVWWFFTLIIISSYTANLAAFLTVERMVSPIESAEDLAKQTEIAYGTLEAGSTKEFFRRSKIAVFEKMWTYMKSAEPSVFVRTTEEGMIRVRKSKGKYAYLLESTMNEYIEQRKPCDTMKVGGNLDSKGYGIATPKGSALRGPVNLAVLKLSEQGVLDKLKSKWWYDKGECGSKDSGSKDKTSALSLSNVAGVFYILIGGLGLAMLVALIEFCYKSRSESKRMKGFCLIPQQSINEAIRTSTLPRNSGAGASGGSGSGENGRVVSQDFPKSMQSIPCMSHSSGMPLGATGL

B1: CPT1CM589S (malonyl-CoA-insensitive CPT1C) expressed in HEK cells for co-immunoprecipitation (natural protein, UniProt Q8BGD5 1-798, looked up)
chain: MAEAHQASSLLSSLSSDGAEVELSSPVWQEIYLCALRSWKRHLWRVWNDFLAGVVPATPLSWLFLFSTIQLACLLQLDPSLGLMEKIKELLPDWGGQHHQLQGFLSAAVFASCLWGALIFTLHVALRLLLSHHGWLLEPHGAMSSPTKTWLALVRIFSGRHPRLFSFQRALPRQPVPSAQETVRKYLESVRPVLGDDAFDRATALANDFLRLHAPRLQLYLQLKSWCTSNYVSDWWEEFVYLRSRGSLINSTYYMMDFLYVTPTPLQAARAGNAVHTLLLYRHLLNRQEISPTLLMGMRPLCSAQYERMFNTTRIPGVEKDHLRHLQDSRHVAVFHRGRFFRVGTHSPNGLLSPRALEQQFQDILDDPSPACPLEEHLAALTAAPRSMWAQVRESVKTHAATALEAVEGAAFFVSLDSEPAGLTREDPAASLDAYAHALLAGRGHDRWFDKSFTLIVFSNGKLGLSVEHSWADCPVSGHLWEFTLATECFQLGYATDGHCKGHPDPTLPQPQRLQWDLPEQIQPSISLALRGAKTLSGNIDCHVFPFSHFGKSFIKCCHVSSDSFIQLVLQLAHFRDRGQFCLTYESASTRLFLEGRTETVRSCTREACQFVRAMDNKETDQHCLALFRVAVDKHQALLKAAMSGQGIDRHLFALYIMSRLLHMQSPFLTQVQSQQWLLSTSQVPVQQTHLIDVHNYPDYVSSGGGFGPAHDHGYGISYIFMGENAITFHISSKKSSTETDSHRLGQHIENALLDVASLFRVGQHFKRQFRGENSDYRYNFLSCKTVDPNTPTSSTNL
coimmunoprecipitated CPT1C versus immunoprecipitated GluA1, relative to WT CPT1C [1]: 0.85 ratio to GluA1 + WT CPT1C (1.00)

B4: CPT1CΔCterm-FLAG (truncated CPT1C, last 39 aa replaced by FLAG) expressed in HEK cells for co-immunoprecipitation (domain or fragment, UniProt Q8BGD5 1-759, looked up)
chain: MAEAHQASSLLSSLSSDGAEVELSSPVWQEIYLCALRSWKRHLWRVWNDFLAGVVPATPLSWLFLFSTIQLACLLQLDPSLGLMEKIKELLPDWGGQHHQLQGFLSAAVFASCLWGALIFTLHVALRLLLSHHGWLLEPHGAMSSPTKTWLALVRIFSGRHPRLFSFQRALPRQPVPSAQETVRKYLESVRPVLGDDAFDRATALANDFLRLHAPRLQLYLQLKSWCTSNYVSDWWEEFVYLRSRGSLINSTYYMMDFLYVTPTPLQAARAGNAVHTLLLYRHLLNRQEISPTLLMGMRPLCSAQYERMFNTTRIPGVEKDHLRHLQDSRHVAVFHRGRFFRVGTHSPNGLLSPRALEQQFQDILDDPSPACPLEEHLAALTAAPRSMWAQVRESVKTHAATALEAVEGAAFFVSLDSEPAGLTREDPAASLDAYAHALLAGRGHDRWFDKSFTLIVFSNGKLGLSVEHSWADCPVSGHLWEFTLATECFQLGYATDGHCKGHPDPTLPQPQRLQWDLPEQIQPSISLALRGAKTLSGNIDCHVFPFSHFGKSFIKCCHVSSDSFIQLVLQLAHFRDRGQFCLTYESAMTRLFLEGRTETVRSCTREACQFVRAMDNKETDQHCLALFRVAVDKHQALLKAAMSGQGIDRHLFALYIMSRLLHMQSPFLTQVQSQQWLLSTSQVPVQQTHLIDVHNYPDYVSSGGGFGPAHDHGYGISYIFMGENAITFHISSKKSSTETDSHRLGQHIENALLDVASL
coimmunoprecipitated CPT1C versus immunoprecipitated GluA1, relative to WT CPT1C [1]: 0.12 ratio to GluA1 + WT CPT1C (1.00)

Now from value to binder:

percentage of FRET efficiency [2]: 9.51%
B2: YFP-CPT1CM589S for FRET (natural protein, UniProt Q8BGD5 1-798, looked up)
chain: B1 chain

percentage of FRET efficiency [2]: 8.7%
B3: YFP-CPT1C, wild type, for FRET (CPT1C-SYFP2) (natural protein, human, UniProt Q8TCG5 1-803, looked up)
chain: MAEAHQAVGFRPSLTSDGAEVELSAPVLQEIYLSGLRSWKRHLSRFWNDFLTGVFPASPLSWLFLFSAIQLAWFLQLDPSLGLMEKIKELLPDWGGQHHGLRGVLAAALFASCLWGALIFTLHVALRLLLSYHGWLLEPHGAMSSPTKTWLALVRIFSGRHPMLFSYQRSLPRQPVPSVQDTVRKYLESVRPILSDEDFDWTAVLAQEFLRLQASLLQWYLRLKSWWASNYVSDWWEEFVYLRSRNPLMVNSNYYMMDFLYVTPTPLQAARAGNAVHALLLYRHRLNRQEIPPTLLMGMRPLCSAQYEKIFNTTRIPGVQKDYIRHLHDSQHVAVFHRGRFFRMGTHSRNSLLSPRALEQQFQRILDDPSPACPHEEHLAALTAAPRGTWAQVRTSLKTQAAEALEAVEGAAFFVSLDAEPAGLTREDPAASLDAYAHALLAGRGHDRWFDKSFTLIVFSNGKLGLSVEHSWADCPISGHMWEFTLATECFQLGYSTDGHCKGHPDPTLPQPQRLQWDLPDQIHSSISLALRGAKILSENVDCHVVPFSLFGKSFIRRCHLSSDSFIQIALQLAHFRDRGQFCLTYESAMTRLFLEGRTETVRSCTREACNFVRAMEDKEKTDPQCLALFRVAVDKHQALLKAAMSGQGVDRHLFALYIVSRFLHLQSPFLTQVHSEQWQLSTSQIPVQQMHLFDVHNYPDYVSSGGGFGPADDHGYGVSYIFMGDGMITFHISSKKSSTKTDSHRLGQHIEDALLDVASLFQAGQHFKRRFRGSGKENSRHRCGFLSRQTGASKASMTSTDF
